Laboratory results reported in patent US20070180544A1.
Each block holds one molecule with its values, some of them ahead of it.

Assays:
[1] = molecular target: extracellular domain of rat neurexin-1-β (rat-NX1β-1), residues 48-300 (rat) (UniProt Q63373); test: SPR, NX1β immobilised
[2] = molecular target: extracellular domain of rat neurexin-1-β (rat-NX1β-1), residues 48-300 (rat) (UniProt Q63373); test: SPR, NX1β immobilised; one value told for the four proteins
[3] = molecular target: extracellular domain of rat neurexin-1-β (rat-NX1β-1), residues 48-300 (rat) (UniProt Q63373); test: SPR, β-neurexin immobilised; 3 µM
[4] = molecular target: extracellular domain of rat neurexin-1-β (rat-NX1β-1), residues 48-300 (rat) (UniProt Q63373); test: SPR, β-neurexin immobilised; 111 nM
[5] = molecular target: extracellular domain of rat neurexin-1-β (rat-NX1β-1), residues 48-300 (rat) (UniProt Q63373); test: SPR (BIAcore), NX1β immobilised
[6] = molecular target: extracellular domain of rat neurexin-1-β (rat-NX1β-1), residues 48-300 (rat) (UniProt Q63373); test: SPR (BIAcore), NX1β immobilised; from ka and kd
[7] = molecular target: extracellular domain of rat neurexin-1-β (rat-NX1β-1), residues 48-300 (rat) (UniProt Q63373); test: SPR, NX1β immobilised; treated against native protein
[8] = molecular target: extracellular domain of rat neurexin-1-β (rat-NX1β-1), residues 48-300 (rat) (UniProt Q63373); test: SPR, NX1β immobilised; sialidase II treated against native protein
[9] = molecular target: extracellular domain of rat neurexin-1-β (rat-NX1β-1), residues 48-300 (rat) (UniProt Q63373); test: SPR, NX1β immobilised; deglycosylated against native protein
[10] = molecular target: extracellular domain of rat neurexin-1-β (rat-NX1β-1), residues 48-300 (rat) (UniProt Q63373); test: SPR (BIAcore), NX1β immobilised, NL1 62.5-2000 nM
[11] = molecular target: extracellular domain of rat neurexin-1-β (rat-NX1β-1), residues 48-300 (rat) (UniProt Q63373); test: SPR, NX1β immobilised; treated against native protein, 500 nM

Molecule: N343A-NL1-638 (from UniProt Q62765 46-638) (receptor)
increase of NX1β binding activity after PNGase F digestion [2]: 229%

Molecule: R473T-NL1-691 (from UniProt Q62765 46-691) (receptor)
fold less total binding than wild type [4]: 3 fold

Molecule: T111A-NL1-638 (from UniProt Q62765 46-638) (receptor)
increase of NX1β binding activity after PNGase F digestion [2]: 229%

B3: NL1-651 (soluble rat neuroligin-1 truncated by a stop codon at Thr-652, N-terminal FLAG) (receptor)
chain: DYKDDDDKLAAANSSIDLQKLDDVDPLVTTNFGKIRGIKKELNNEILGPVIQFLGVPYAAPPTGEHRFQPPEPPSPWSDIRNATQFAPVCPQNIIDGRLPEVMLPVWFTNNLDVVSSYVQDQSEDCLYLNIYVPTEDVKRISKECARKPGKKICRKGDIRDSGGPKPVMVYIHGGSYMEGTGNLYDGSVLASYGNVIVITVNYRLGVLGFLSTGDQAAKGNYGLLDLIQALRWTSENIGFFGGDPLRITVFGSGAGGSCVNLLTLSHYSEGNRWSNSTKGLFQRAIAQSGTALSSWAVSFQPAKYARILATKVGCNVSDTVELVECLQKKPYKELVDQDVQPARYHIAFGPVIDGDVIPDDPQILMEQGEFLNYDIMLGVNQGEGLKFVENIVDSDDGVSASDFDFAVSNFVDNLYGYPEGKDVLRETIKFMYTDWADRHNPETRRKTLLALFTDHQWVAPAVATADLHSNFGSPTYFYAFYHHCQTDQVPAWADAAHGDEVPYVLGIPMIGPTELFPCNFSKNDVMLSAVVMTYWTNFAKTGDPNQPVPQDTKFIHTKPNRFEEVAWTRYSQKDQLYLHIGLKPRVKEHYRANKVNLWLELVPHLHNLNDISQYTSTTTKVPS
fold binding over NL1-691 [10]: 2.5 fold

More lines, now with the values ahead:

increase of NX1β binding activity after PNGase F digestion [1]: 17%
Molecule: N303A-NL1-638 (from UniProt Q62765 46-638) (receptor)

fold less β-neurexin binding than wild type [3]: 50 fold
Molecule: R471C-NL3-639 (from UniProt Q62889 35-639) (receptor)

increase of NX1β binding activity after PNGase F digestion [2]: 229%
Molecule: S549A-NL1-638 (from UniProt Q62765 46-638) (receptor)

koff [5]: 0.015 s⁻¹
kon [5]: 50000 M⁻¹ s⁻¹
Kd [6]: 300 nM
Molecule: soluble truncated NL1 (recombinant, soluble entity; truncation not specified) (from UniProt Q62765 46-691) (receptor)

fold increase in binding after combined sialidase II and PNGase F treatment [7]: 5 fold
fold increase in binding after sialidase-II treatment [8]: 2 to 2.5 fold
fold increase in binding after PNGase F treatment [9]: 3 fold
B1: NL1-691 (soluble rat neuroligin-1 truncated by a stop codon at Tyr-692, N-terminal FLAG) (receptor)
chain: DYKDDDDKLAAANSSIDLQKLDDVDPLVTTNFGKIRGIKKELNNEILGPVIQFLGVPYAAPPTGEHRFQPPEPPSPWSDIRNATQFAPVCPQNIIDGRLPEVMLPVWFTNNLDVVSSYVQDQSEDCLYLNIYVPTEDVKRISKECARKPGKKICRKGDIRDSGGPKPVMVYIHGGSYMEGTGNLYDGSVLASYGNVIVITVNYRLGVLGFLSTGDQAAKGNYGLLDLIQALRWTSENIGFFGGDPLRITVFGSGAGGSCVNLLTLSHYSEGNRWSNSTKGLFQRAIAQSGTALSSWAVSFQPAKYARILATKVGCNVSDTVELVECLQKKPYKELVDQDVQPARYHIAFGPVIDGDVIPDDPQILMEQGEFLNYDIMLGVNQGEGLKFVENIVDSDDGVSASDFDFAVSNFVDNLYGYPEGKDVLRETIKFMYTDWADRHNPETRRKTLLALFTDHQWVAPAVATADLHSNFGSPTYFYAFYHHCQTDQVPAWADAAHGDEVPYVLGIPMIGPTELFPCNFSKNDVMLSAVVMTYWTNFAKTGDPNQPVPQDTKFIHTKPNRFEEVAWTRYSQKDQLYLHIGLKPRVKEHYRANKVNLWLELVPHLHNLNDISQYTSTTTKVPSTDITLRPTRKNSTPVTSAFPTAKQDDPKQQPSPFSVDQRD

fold binding over NL1-691 [10]: 2.5 fold
increase of NX1β binding activity after PNGase F digestion [2]: 229%
fold increase in binding after combined sialidase II and PNGase F treatment [11]: 5 fold
fold increase in binding after sialidase-II treatment [8]: 2 to 2.5 fold
fold increase in binding after PNGase F treatment [9]: 3 fold
B2: NL1-638 (soluble rat neuroligin-1 truncated by a stop codon at Ile-639, N-terminal FLAG) (receptor)
chain: DYKDDDDKLAAANSSIDLQKLDDVDPLVTTNFGKIRGIKKELNNEILGPVIQFLGVPYAAPPTGEHRFQPPEPPSPWSDIRNATQFAPVCPQNIIDGRLPEVMLPVWFTNNLDVVSSYVQDQSEDCLYLNIYVPTEDVKRISKECARKPGKKICRKGDIRDSGGPKPVMVYIHGGSYMEGTGNLYDGSVLASYGNVIVITVNYRLGVLGFLSTGDQAAKGNYGLLDLIQALRWTSENIGFFGGDPLRITVFGSGAGGSCVNLLTLSHYSEGNRWSNSTKGLFQRAIAQSGTALSSWAVSFQPAKYARILATKVGCNVSDTVELVECLQKKPYKELVDQDVQPARYHIAFGPVIDGDVIPDDPQILMEQGEFLNYDIMLGVNQGEGLKFVENIVDSDDGVSASDFDFAVSNFVDNLYGYPEGKDVLRETIKFMYTDWADRHNPETRRKTLLALFTDHQWVAPAVATADLHSNFGSPTYFYAFYHHCQTDQVPAWADAAHGDEVPYVLGIPMIGPTELFPCNFSKNDVMLSAVVMTYWTNFAKTGDPNQPVPQDTKFIHTKPNRFEEVAWTRYSQKDQLYLHIGLKPRVKEHYRANKVNLWLELVPHLHNLND
